From patent US11529426B2, “Methods and compositions for targeting tissue lesions” (priority 2017, dated 2022)

B1: MabCII: monoclonal antibody to type II collagen from E4-D4 (E4) hybridoma clone; mouse IgG2a heavy chain, kappa light chain; VH/VL SEQ ID NO: 6/14 (antibody, listed as Mus musculus, V domains shown)
VH: EVQLVESGGGLVKPGGSLKVSCEASGFTFSDYGMHWVRQAPEKGLEWVAYISSVSSTIYYADTVEGRFTISRDNVRNTLFLQMTSLRSEDTAMYYCAREGWLPLFAFWGQGTLVTVSA
VL: DIVLTQSHKFMSTSVGDRVSITCKASQDVSITVAWYQQKPGQSPKLLIYSASYRNPGVPDRFTGSGSGTDFNFTISTVQAEDLAVYYCQQYYIIPWTFGGGTKLEFKR

Key:
[1] = test system: collagen-induced arthritis; details: mice, reference [20]; cited from earlier work
[2] = test system: mechanically loaded mouse knee; assay: Mechanically loaded mouse knee (PTOA), E4 nanosomes: cartilage damage by MabCII680 fluorescence; assay type: in vivo, C57BL/6 mice; details: intravenous, 100 uM TPCA-1, 3 injections, two-week loading; vs empty nanosomes (Control)
From the text: (§1) Targeted nanosomes were generated from lipids and conjugated to purified E4-D4 (E4) monoclonal antibody to type II collagen that was developed from a hybridoma isolated from mice immunized with type II collagen. Briefly, the lipid film which contained dioleoyl-sn-glycero-3-phosphocholine (DOPC), cholesterol, 1,2-distearoyl-sn-glycero-3-phosphoethanolamine-N-[maleimide (polyethylene glycol) 2000] (DSPE-PEG-maleimide) and TPCA-1 was rehydrated with phosphate buffered saline (PBS) and sonicated. The rehydrated lipids were repeatedly extruded through a 200 nm porous membrane to generate 200 nm 1-3 walled nanosomes. The E4 MabCII was thiolated using Traut's reagent, then mixed with the nanosomes for conjugation. […] The E4 MabCII was also conjugated to the near infrared dye XenoLight CF 680 (PerkinElmer) used for the final quantitative imaging of arthritic damage. […]
(§2) At the completion of the two-week loading period, mice were injected retro-orbitally with 100 μL composite mixture of 50 μL of 1 mg/ml E4 monoclonal antibody to type II collagen MabCII680 labeled with Xenolight CF 680 fluorescent dye and 50 μL of MMPSense-750 (Perkin-Elmer, Waltham, Mass.), a substrate that fluoresces when cleaved by MMPs. After 24 hours, the mice were anesthetized and the knee joints were optically scanned for each type of fluorescence using a Lumina XR Imaging System (Perkin Elmer, Waltham, Mass.).

[3] = test system: MMPs; assay: Mechanically loaded mouse knee (PTOA), E4 nanosomes: MMP activity by MMPSense-750 fluorescence; assay type: in vivo, C57BL/6 mice; details: intravenous, 100 uM TPCA-1, 3 injections, two-week loading; vs control nanosomes
From the text: as §1, §2

[4] = test system: mechanically loaded mouse knee; assay: Mechanically loaded mouse knee, D1 2G nanosomes: cartilage damage by MabCII680 fluorescence; assay type: in vivo, C57BL/6 mice; details: intraarticular 50 μL, 500 μM TPCA-1, 2 injections, two-week loading; vs PBS
From the text: Targeted nanosomes were generated from lipids and conjugated to purified D1 2G monoclonal antibody from a hybridoma isolated from mice immunized with type II collagen (MabCII). Briefly, the lipid film which contained 5.2 μmol dioleoyl-sn-glycero-3-phosphocholine (DOPC), 4.5 μmol cholesterol, 0.3 μmol 1,2-distearoyl-sn-glycero-3-phosphoethanolamine-N-[maleimide (polyethylene glycol) 2000] (DSPE-PEG-maleimide) and TPCA-1 was rehydrated with phosphate buffered saline (PBS) and sonicated. The rehydrated lipids were repeatedly extruded through a 200 nm porous membrane to generate 200 nm 1-3 walled nanosomes. The MabCII were thiolated using Traut's reagent, then mixed with the nanosomes for conjugation. After conjugation, the reaction mixture was chromatographed on a Sepharose CL-4B column to separate the free antibodies from the coupled liposomes. […]
as §2, with “of” for “of 1 mg/ml E4”, “(MabCII680)” for “MabCII680”, “XenoFluor” for “Xenolight CF”, “680 (XF680; Caliper)” for “680”, “Mass.)” for “Mass.),”, “XR” for “XR Imaging System”

[5] = test system: exposed type II collagen in articular cartilage explants; assay: Binding of fluorescent avidin/biotinylated reparative cells to cartilage explants pre-incubated with biotinylated antibody (IVIS imaging); design: species or system domestic pigs; details: for binding of fluorescent avidin/biotinylated ADSC cells to cartilage explant: biotinylated antibody 1 hr
Description: Type II collagen monoclonal antibody (MabCII) at a concentration of 1 mg/mL was buffer exchanged with phosphate buffered saline (PBS). The linking reagent NHS-PEG4-Biotin (Thermo Scientific) was then brought up in distilled water to a recommended 20-fold molar excess of Biotin per mg/mL of MabCII. The biotinylated MabCII sample was then added to a Zeba spin desalting column (Thermo Scientific) column and centrifuged at 1000×g for 2 minutes in order to remove excess biotin reagent. The collected flow-through solution was the purified sample. As a control, irrelevant monoclonal mouse IgG antibody of the same subclass (Isotope Control from R&D Systems, Inc.) was similarly prepared.
The reparative cells (isolated chondrocytes or chondrogenically differentiated ADSCs) previously labeled with a fluorescent dye (Vivotrack 680: PerkinElmer, MA), were re-suspended at 1×10^6 cells/ml in fresh serum-free medium with 250 mM sucrose, 1 mM HEPES, and 1 mM CaCl2. The PE-PEG-Biotin stock solution (1 mM) was then added to the various tubes at 25 μM final concentration and incubated for 60 minutes to allow PE-PEG-Biotin integration into the cell membranes. Neutravidin was dissolved in PBS and added to the PE-PEG-Biotin labeled cells at a final concentration of […] of Neutravidin. The tubes were then allowed to incubate on a rocker platform for 30 minutes at 37° C. for binding. After incubation, the cells were centrifuged, supernatants were discarded, and serum-free medium was added and the cells vortexed ready to incubate with the cartilage explants.
Cartilage explants were harvested from the articular cartilage of femoral condyles of domestic pigs ranging from 25 to 30 kilograms and were punched from cartilage explants taken from the surface of articular cartilage with a 6 mm dermal punch to provide equivalent surface areas. The cartilage explants were divided into two groups for incubation with biotinylated Mab; one group that would be mechanically damaged and one group with no damage (normal). […]

[6] = test system: type II collagen (Col2a1) expression; assay: Type II collagen gene expression (PCR) of reparative cells bound to devitalized scratched cartilage explants; assay type: cell-based, pig; details: one week
Description: For evaluation of gene expression of the reparative cells attaching to cartilage explants with the two step MabCII, biotin-avidin system described above, cartilage explants were devitalized by freeze thawing and washed three times before incubation with biotinylated MabCII and avidin/biotinylated chondrocytes or avidin/biotinylated chondrogenically differentiated ADSC cells as described above. After washing to remove unbound cells, the cells bound to the explants were incubated for one week in complete F12K culture medium with 10% FCS. The explants were then washed and the RNA extracted with Trizol for quantitative polymerase chain reaction (PCR) for the cartilage specific-type II collagen expression. Quantitative gene expression was analyzed by PCR using primers specific for type II collagen (Col-II) and the housekeeping gene glyceraldehyde-3-phosphate dehydrogenase (GAPDH). Gene expression was calculated as 2^−ΔΔCT after normalization to GAPDH expression. For some experiments gene expression from avidin/biotinylated cells that were incubated in standard tissue culture wells or incubated with cartilage with no antibody for the same period of time were set as 1+/− standard error of the mean (SEM) and compared to same type of cells binding to the cartilage explants.

Row | Molecule | proinflammatory mediators in collagen-induced arthritis [1] | cartilage damage: binding of MabCII680, intensity in region of interest [2] | MMP activity: fluorescence of MMPSense-750 [3] | cartilage damage: binding of MabCII680, intensity in region of interest [4] | binding of isolated articular chondrocytes to cartilage explant ([5]; avidin/biotinylated chondrocytes, data not shown) | binding of fluorescent avidin/biotinylated ADSC cells to cartilage explant ([5]; damaged (scratched) cartilage) | binding of fluorescent avidin/biotinylated ADSC cells to cartilage explant ([5]; normal (unscratched) articular cartilage) | expression of CII relative to cells maintained without cartilage in standard tissue culture ([6]; articular chondrocytes on explants) | type II collagen (Col2a1) gene expression of targeted cells ([6]; avidin/biotinylated ADSC, FIG. 9B) | type II collagen (Col2a1) gene expression of targeted cells ([6]; avidin/biotinylated chondrocytes, FIG. 9A)
1 | NC(=O)Nc1sc(-c2ccc(F)cc2)cc1C(N)=O [TPCA-1, 2-[(aminocarbonyl)amino]-5-(4-fluorophenyl)-3-thiophenecarboxamide] | reduce proinflammatory mediators such as TNF-α | did not show significant improvement | did not show significant reduction | no improvement |  |  |  |  |  | 
2 | B1 |  |  |  |  | same specificity of binding | significant amount of reparative cells binding | not detectable | equivalent | continue to express type II collagen | continue to express type II collagen
